Source: US20250289897A1 (Eli Lilly, published 2025)

What was measured:
[1] = biological target: T1, human LEPR-ECD-His (human, UniProt P48357 22-839); test: SPR (Biacore T200), antibody captured on Protein A/G chip, His-tagged LEPR-ECD as analyte, 1:1 fit; mean n=3, SD 2.2E-9
T1 sequence: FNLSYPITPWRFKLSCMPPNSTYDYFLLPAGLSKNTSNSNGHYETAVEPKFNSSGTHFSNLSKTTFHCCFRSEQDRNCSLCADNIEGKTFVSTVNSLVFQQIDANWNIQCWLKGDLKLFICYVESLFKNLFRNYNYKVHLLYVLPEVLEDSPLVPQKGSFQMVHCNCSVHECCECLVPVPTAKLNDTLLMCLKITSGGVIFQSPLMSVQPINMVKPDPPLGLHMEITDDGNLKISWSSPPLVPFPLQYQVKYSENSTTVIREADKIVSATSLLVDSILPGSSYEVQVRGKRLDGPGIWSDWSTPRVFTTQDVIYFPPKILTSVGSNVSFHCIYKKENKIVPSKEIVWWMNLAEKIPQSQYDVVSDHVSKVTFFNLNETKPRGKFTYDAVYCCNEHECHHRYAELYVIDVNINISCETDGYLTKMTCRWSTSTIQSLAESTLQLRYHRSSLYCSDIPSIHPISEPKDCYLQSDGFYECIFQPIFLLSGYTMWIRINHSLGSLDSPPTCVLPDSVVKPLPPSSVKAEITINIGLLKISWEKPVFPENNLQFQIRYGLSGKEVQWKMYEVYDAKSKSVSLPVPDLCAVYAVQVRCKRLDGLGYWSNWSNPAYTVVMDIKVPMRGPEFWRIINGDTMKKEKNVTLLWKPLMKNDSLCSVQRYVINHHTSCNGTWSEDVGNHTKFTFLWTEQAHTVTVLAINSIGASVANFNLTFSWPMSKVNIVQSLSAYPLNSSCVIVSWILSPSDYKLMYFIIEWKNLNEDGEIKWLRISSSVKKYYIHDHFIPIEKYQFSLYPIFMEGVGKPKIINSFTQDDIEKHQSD
Protocol: His-tagged ECDs were expressed and purified for each species and used for affinity analysis. A Protein A/G chip (Xantec, Cat #PAGHC200M) was utilized in this experiment with HBS-EP +0.01% BSA as running buffer. Antibodies were diluted to 1 μg/mL in running buffer and captured to a single flow cell on the chip surface. Each species of LEPR-ECD was diluted to 1000 nM in running buffer followed by 2-fold serial dilution. Each ligand concentration was injected over all flow cells at 100 L/min for 150 seconds followed by a 600 second dissociation phase. Regeneration was performed by injecting 10 mM glycine pH1.5 for 30 seconds at 10 μL/min. Data were analyzed in Biacore T200 Evaluation Software 3.1 by flow-cell 1 reference subtraction along with 0 nM blank subtraction. Data were fit globally using a “1:1 Binding” binding model to determine the on-rate (kₐ) and off-rate (kd) for each ligand. The affinity (KD) was calculated from the binding kinetics according to the relationship KD=kₐ/kd. Data reported as mean±standard deviation of experimental replicates.

[2] = biological target: neonatal Fc receptor (FcRn) on FcRn Affinity Column Gen2 (Roche, Cat #09430857001) (UniProt P55899 24-297; P61769 21-119, limits assumed); test: FcRn-HPLC (Roche FcRn Affinity Column Gen2), pH gradient 5.5 to 8.8 over 90 minutes
Protocol: Stock antibody solutions were diluted to 1 mg/mL into 20 mM MES, 140 mM NaCl, pH5.5. […] 20 μμL antibody injections were made followed by 10 minute column wash with 20 mM MES, 140 mM NaCl, pH5.5. Antibodies were then eluted by pH gradient elution into 20 mM Tris, 140 mM NaCl, pH8.8 over 90 minutes. Chromatograms were blank-subtracted to remove baseline drift.

Kd [1]: 20 nM
Retention Time [2]: 80.1 min
B1: Antibody A (antibody, human IgG1, kappa, L234A L235A)
heavy: EVQLLESGGGLVQPGGSLRLSCAASGFTFSSFAMSWVRQAPGKGLEWVSAISGSGGSTYSADSVRGRFTISRDNSKNTLYLQMNSLRAEDTAVYYCAKDQGDWDFLFDYWGQGTLVTVSSASTKGPSVFPLAPSSKSTSGGTAALGCLVKDYFPEPVTVSWNSGALTSGVHTFPAVLQSSGLYSLSSVVTVPSSSLGTQTYICNVNHKPSNTKVDKRVEPKSCDKTHTCPPCPAPEAAGGPSVFLFPPKPKDTLYITREPEVTCVVVSVSHEDPEVKFNWYVDGVEVHNAKTKPREEQYNSTYRVVSVLTVLHQDWLNGKEYKCKVSNKALPAPIEKTISKAKGQPREPQVYTLPPSREEMTKNQVSLTCLVKGFYPSDIAVEWESNGQPENNYKTTPPVLDSDGSFFLYSKLTVDKSRWQQGNVFSCSVMHEALHNHYTQKSLSLSPGK
light: DIQMTQSPSFLSASVGDRVTITCRASQGISSSLAWYQQKPGKAPKLLIYTASTLQSGVPSRFSGSGSGTEFTLTISSLQPEDFATYYCQQLIYYPFTFGQGTKVEIKRTVAAPSVFIFPPSDEQLKSGTASVVCLLNNFYPREAKVQWKVDNALQSGNSQESVTEQDSKDSTYSLSSTLTLSKADYEKHKVYACEVTHQGLSSPVTKSFNRGEC
notes: IgG1 mAb
